Source: patent US20170081400A1 (CEPHALON, published 2017)
Where a chain is given by its changes, count along the chain named.

What was measured:
[1] = molecular target: T1, human TL1A extracellular domain with N-terminal HIS and FLAG tag (human, UniProt O95150 72-251); experiment: SPR run 2; purified antibody on Protein A; TL1A 10 ug/mL; timepoint 590
T1 construct: whole entry named. ~70 kDa fraction purified by gel filtration
T1 sequence: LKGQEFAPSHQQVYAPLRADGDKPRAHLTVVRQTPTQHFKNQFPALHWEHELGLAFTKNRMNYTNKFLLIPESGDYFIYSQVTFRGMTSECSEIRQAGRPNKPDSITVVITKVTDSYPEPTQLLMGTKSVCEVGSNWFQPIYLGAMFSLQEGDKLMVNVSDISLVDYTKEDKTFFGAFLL
From the text: (§1) 1.5. Antibody expression and antigen binding as determined by SPR. Using a CM5 sensor chip (GE Healthcare) Protein A (Pierce) was coupled to the chip surface using an amine coupling kit (GE Healthcare). Protein A was coupled on flow cell 1 and 2 (or alternatively 3 and 4) using a BIACORE® T200. […] The amount of supernatant or purified protein (as well as the concentration) injected during the capture stage varied between runs and is specified in the header of the Tables 3-11. At the end of injection of the supernatant or purified antibody the change in response units was measured. This value was reported as Capture Level in Tables 3-11. […] The response units were measured prior to the end of the dissociation phase. […] The sensorgrams were double referenced (flow cell 2 is subtracted from flow cell 1 and a buffer blank). As there were a large number of antibody variants to screen, these were screened across different runs (Tables 3-11). […] A summary of the conditions used in each run is below:
(§2) 2.1. […] In some experiment the antibodies were purified using Protein A chromatography (See 1.4) and purified antibodies were used in BIACORE® (GE Healthcare) experiments.

[2] = molecular target: T1, human TL1A extracellular domain with …; experiment: SPR run 2; purified antibody on Protein A; TL1A 10 ug/mL; timepoint 44
From the text: as §1, §2

[3] = molecular target: T1, human TL1A extracellular domain with …; experiment: SPR run 2; supernatant on Protein A; TL1A 10 ug/mL; timepoint 220
In short: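 Surface plasmon resonance on a Biacore T200 was used, with variants spread over several runs. Antibodies were captured via immobilized Protein A, and their capture level was recorded. Sensorgrams were double-referenced, and the antigen response was read near the end of dissociation.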

[4] = molecular target: T1, human TL1A extracellular domain with …; experiment: SPR run 2; supernatant on Protein A; TL1A 10 ug/mL; timepoint 44
In short: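 The capture level was the response change at the end of loading, which varied by run. Antigen response was read before dissociation ended, double-referenced against a reference flow cell and a buffer blank.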

[5] = molecular target: T1, human TL1A extracellular domain with …; experiment: SPR run 3; supernatant on Protein A; TL1A 10 ug/mL; timepoint 59
From the text: as §1, §2

[6] = molecular target: T2, human TL1A extracellular domain with N-terminal HIS and FLAG tag (human) (UniProt O95150); experiment: cell-based or functional assay
T2 sequence: T1 sequence

[7] = molecular target: T1, human TL1A extracellular domain with …; experiment: SPR run 3; supernatant on Protein A; TL1A 10 ug/mL; timepoint 590
From the text: as §1, §2

[8] = molecular target: T3, human TL1A extracellular domain with N-terminal HIS and FLAG tag (human, UniProt O95150 72-251); experiment: SPR Run 9, antibody on Protein A, TL1A 5 ug/mL, timepoint 44
T3 construct: the whole entry is named; also called TNFSF15
T3 sequence: T1 sequence
From the text: as §1, §2

[9] = molecular target: T3, human TL1A extracellular domain with …; experiment: SPR Run 9, antibody on Protein A, TL1A 5 ug/mL, timepoint 590
From the text: as §1, §2

[10] = molecular target: T3, human TL1A extracellular domain with …; experiment: cell-based or functional assay

B1: 320-193 (antibody, human IgG1, name in Kabat numbering, V domains shown)
VH: QVQLVQSGAEVKKPGASVKVSCKASGYTFTSYDINWVRQAPGQGLEWMGWLNPNSGNTGYAQKFQGRVTMTADRSTSTAYMELSSLRSEDTAVYYCAREVPETAAFEYWGQGTLVTVSS
VL: QSVLTQPPSVSGAPGQRVTISCSSSSSDIGAGLGVHWYQQLPGTAPKLLIEGYYNRPSGVPDRFSGSKSGTSASLTITGLLPEDEGDYYCQSYDGTLSALFGGGTKLTVLG
notes: human IgG1, lambda
- TL1A Binding Level (Late) [1]: 91 RU
- TL1A Binding Level (Early) [2]: 103 RU
- TL1A Binding Level (Late) [3]: 227 RU
- TL1A Binding Level (Early) [4]: 249 RU

B2: 320-194 (antibody, human IgG1, name in Kabat numbering, V domains shown)
VH: B1 VH
VL: B1 VL with S23Q
notes: human IgG1, lambda
- TL1A Binding Level (Late) [1]: 64 RU
- TL1A Binding Level (Early) [2]: 76 RU
- TL1A Binding Level (Late) [3]: 226 RU
- TL1A Binding Level (Early) [4]: 247 RU

B3: 320-263 (antibody, human IgG1, name in Kabat numbering, V domains shown)
VH: B1 VH
VL: B1 VL with S23T, A31K
notes: human IgG1, lambda
- TL1A Binding Level (Early) [5]: 121 RU
- Antibody IC50, TL1A induced caspase potency assay in TF-1 cells [6]: 3 ng/mL
- Fold improvement over 320-179, TL1A induced caspase potency assay in TF-1 cells [6]: 3 fold
- TL1A Binding Level (Late) [7]: 123 RU

B4: 320-598 (antibody, human IgG1, name in Kabat numbering, V domains shown)
VH: B1 VH
VL: B1 VL with S23T, H36L, Y93F
notes: full-length human IgG1, lambda
- TL1A Binding Level (Early) [8]: 112 RU
- TL1A Binding Level (Late) [9]: 101 RU

B5: 320-297 (antibody, human IgG1, name in Kabat numbering, V domains shown)
VH: B1 VH
VL: B1 VL with S23T, V35H
notes: human IgG1, lambda
- TL1A Binding Level (Early) [5]: 95 RU
- Antibody IC50, TL1A induced caspase potency assay in TF-1 cells [6]: 5 ng/mL
- Fold improvement over 320-179, TL1A induced caspase potency assay in TF-1 cells [6]: 4 fold
- TL1A Binding Level (Late) [7]: 77 RU

B6: 320-602 (antibody, human IgG1, name in Kabat numbering, V domains shown)
VH: B1 VH with N57Y
VL: B1 VL with S23T, L33Q, Y93F
notes: as for B4
- TL1A Binding Level (Early) [8]: 131 RU
- TL1A Binding Level (Late) [9]: 125 RU

B7: 320-615 (antibody, human IgG1, name in Kabat numbering, V domains shown)
VH: B1 VH with N57Y
VL: B1 VL with S23T, G95Y
notes: as for B4
- TL1A Binding Level (Early) [8]: 113 RU
- TL1A Binding Level (Late) [9]: 108 RU

B8: 320-611 (antibody, human IgG1, name in Kabat numbering, V domains shown)
VH: B1 VH with N57Y
VL: B1 VL with S23T, Y93W, G95K
notes: as for B4
- TL1A Binding Level (Early) [8]: 125 RU
- TL1A Binding Level (Late) [9]: 127 RU
- Antibody IC50, TL1A induced caspase potency assay in TF-1 cells [10]: 5 ng/mL
- Fold improvement over 320-179, TL1A induced caspase potency assay in TF-1 cells [10]: 8 fold

B9: 320-203 (antibody, human IgG1, name in Kabat numbering, V domains shown)
VH: B1 VH
VL: B1 VL with S23T, S24D
notes: human IgG1, lambda
- TL1A Binding Level (Late) [1]: 35 RU
- TL1A Binding Level (Early) [2]: 65 RU
- TL1A Binding Level (Late) [3]: 24 RU
- TL1A Binding Level (Early) [4]: 61 RU

B10: 320-612 (antibody, human IgG1, name in Kabat numbering, V domains shown)
VH: B1 VH
VL: B1 VL with S23T, Y93W, G95Y
notes: as for B4
- TL1A Binding Level (Early) [8]: 126 RU
- TL1A Binding Level (Late) [9]: 120 RU

B11: 320-596 (antibody, human IgG1, name in Kabat numbering, V domains shown)
VH: B1 VH
VL: B1 VL with S23T, Y93F
notes: as for B4
- TL1A Binding Level (Early) [8]: 95 RU
- TL1A Binding Level (Late) [9]: 85 RU

B12: 320-601 (antibody, human IgG1, name in Kabat numbering, V domains shown)
VH: B1 VH with N57Y
VL: B1 VL with S23T, Y93F
notes: as for B4
- TL1A Binding Level (Early) [8]: 121 RU
- TL1A Binding Level (Late) [9]: 120 RU
- Antibody IC50, TL1A induced caspase potency assay in TF-1 cells [10]: 2 ng/mL
- Fold improvement over 320-179, TL1A induced caspase potency assay in TF-1 cells [10]: 10 fold

B13: 320-616 (antibody, human IgG1, name in Kabat numbering, V domains shown)
VH: B1 VH with N57Y
VL: B1 VL with S23T, G95A
notes: as for B4
- TL1A Binding Level (Early) [8]: 120 RU
- TL1A Binding Level (Late) [9]: 112 RU

B14: 320-199 (antibody, human IgG1, name in Kabat numbering, V domains shown)
VH: B1 VH
VL: B1 VL with S23W
notes: human IgG1, lambda
- TL1A Binding Level (Late) [1]: 85 RU
- TL1A Binding Level (Early) [2]: 97 RU
- TL1A Binding Level (Late) [3]: 233 RU
- TL1A Binding Level (Early) [4]: 251 RU

B15: 320-600 (antibody, human IgG1, name in Kabat numbering, V domains shown)
VH: B1 VH
VL: B1 VL with S23T, G32A, Y93F
notes: as for B4
- TL1A Binding Level (Early) [8]: 111 RU
- TL1A Binding Level (Late) [9]: 104 RU

B16: 320-597 (antibody, human IgG1, name in Kabat numbering, V domains shown)
VH: B1 VH
VL: B1 VL with S23T, L33Q, Y93F
notes: as for B4
- TL1A Binding Level (Early) [8]: 115 RU
- TL1A Binding Level (Late) [9]: 105 RU

B17: 320-603 (antibody, human IgG1, name in Kabat numbering, V domains shown)
VH: B1 VH with N57Y
VL: B1 VL with S23T, H36L, Y93F
notes: as for B4
- TL1A Binding Level (Early) [8]: 126 RU
- TL1A Binding Level (Late) [9]: 118 RU

B18: 320-614 (antibody, human IgG1, name in Kabat numbering, V domains shown)
VH: B1 VH with N57Y
VL: B1 VL with S23T, G95K
notes: as for B4
- TL1A Binding Level (Early) [8]: 122 RU
- TL1A Binding Level (Late) [9]: 111 RU

B19: 320-307 (antibody, human IgG1, name in Kabat numbering, V domains shown)
VH: B1 VH
VL: B1 VL with S23T, H36L
notes: human IgG1, lambda
- TL1A Binding Level (Early) [5]: 216 RU
- Antibody IC50, TL1A induced caspase potency assay in TF-1 cells [6]: 10 ng/mL
- Fold improvement over 320-179, TL1A induced caspase potency assay in TF-1 cells [6]: 4 fold
- TL1A Binding Level (Late) [7]: 200 RU

B20: 320-302 (antibody, human IgG1, name in Kabat numbering, V domains shown)
VH: B1 VH
VL: B1 VL with S23T, H36A
notes: human IgG1, lambda
- TL1A Binding Level (Early) [5]: 99 RU
- Antibody IC50, TL1A induced caspase potency assay in TF-1 cells [6]: 10 ng/mL
- Fold improvement over 320-179, TL1A induced caspase potency assay in TF-1 cells [6]: 2 fold
- TL1A Binding Level (Late) [7]: 74 RU

B21: 320-605 (antibody, human IgG1, name in Kabat numbering, V domains shown)
VH: B1 VH with N57Y
VL: B1 VL with S23T, G32A, Y93F
notes: as for B4
- TL1A Binding Level (Early) [8]: 125 RU
- TL1A Binding Level (Late) [9]: 120 RU

B22: 320-197 (antibody, human IgG1, name in Kabat numbering, V domains shown)
VH: B1 VH
VL: B1 VL with S23K
notes: human IgG1, lambda
- TL1A Binding Level (Late) [1]: 94 RU
- TL1A Binding Level (Early) [2]: 105 RU
- TL1A Binding Level (Late) [3]: 232 RU
- TL1A Binding Level (Early) [4]: 255 RU

B23: 320-613 (antibody, human IgG1, name in Kabat numbering, V domains shown)
VH: B1 VH with N57Y
VL: B1 VL with S23T, Y93W, G95Y
notes: as for B4
- TL1A Binding Level (Early) [8]: 135 RU
- TL1A Binding Level (Late) [9]: 131 RU
- Antibody IC50, TL1A induced caspase potency assay in TF-1 cells [10]: 10 ng/mL
- Fold improvement over 320-179, TL1A induced caspase potency assay in TF-1 cells [10]: 4 fold

B24: 320-280 (antibody, human IgG1, name in Kabat numbering, V domains shown)
VH: B1 VH
VL: B1 VL with S23T, L33H
notes: human IgG1, lambda
- TL1A Binding Level (Early) [5]: 228 RU
- Antibody IC50, TL1A induced caspase potency assay in TF-1 cells [6]: 6 ng/mL
- Fold improvement over 320-179, TL1A induced caspase potency assay in TF-1 cells [6]: 3 fold
- TL1A Binding Level (Late) [7]: 211 RU

B25: 320-599 (antibody, human IgG1, name in Kabat numbering, V domains shown)
VH: B1 VH
VL: B1 VL with S23T, L33S, Y93F
notes: as for B4
- TL1A Binding Level (Early) [8]: 113 RU
- TL1A Binding Level (Late) [9]: 103 RU
